Measurements from PMC9127186, “Molecular Basis Underlying Hepatobiliary and Renal Excretion of Phenolic Acids of Salvia miltiorrhiza Roots (Danshen)” (Frontiers in Pharmacology, 2022).
Each block holds one molecule with its values, some of them ahead of it.

Columns and labels:
human BCRP = biological target: T1, human BCRP (Homo sapiens, UniProt Q9UNQ0); assay: Vesicular transport assay, inside-out membrane vesicles expressing human BCRP; conditions: positive substrate 20 μM, 10 min; human BCRP
T1 sequence (Q9UNQ0 1-655): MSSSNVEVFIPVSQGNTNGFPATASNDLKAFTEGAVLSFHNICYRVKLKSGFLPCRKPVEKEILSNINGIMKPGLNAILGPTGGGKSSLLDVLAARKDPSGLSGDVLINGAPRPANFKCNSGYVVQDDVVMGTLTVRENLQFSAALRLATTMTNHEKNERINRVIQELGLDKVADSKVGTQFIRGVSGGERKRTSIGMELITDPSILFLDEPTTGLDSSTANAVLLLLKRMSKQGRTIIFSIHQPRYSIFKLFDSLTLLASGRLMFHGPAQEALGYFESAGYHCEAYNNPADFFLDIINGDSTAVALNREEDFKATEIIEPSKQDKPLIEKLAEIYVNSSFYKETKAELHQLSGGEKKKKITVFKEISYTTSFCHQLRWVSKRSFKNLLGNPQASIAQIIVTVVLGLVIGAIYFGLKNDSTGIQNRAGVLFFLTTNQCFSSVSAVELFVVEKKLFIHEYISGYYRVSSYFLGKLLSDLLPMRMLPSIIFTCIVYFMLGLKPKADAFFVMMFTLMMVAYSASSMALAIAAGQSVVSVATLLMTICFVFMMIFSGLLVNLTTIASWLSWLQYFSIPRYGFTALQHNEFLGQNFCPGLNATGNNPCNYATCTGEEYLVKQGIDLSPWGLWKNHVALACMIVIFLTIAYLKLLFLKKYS
Method: (§1) Inside-out membrane vesicles (5 mg protein/mL), prepared from insect cells expressing human multidrug resistance-associated protein (MRP) 2, MRP3, MRP4, breast cancer resistance protein (BCRP), bile salt export pump (BSEP), and multidrug resistance protein (MDR) one and rat Mrp2, Mrp4, Bcrp, and Bsep, and vesicles (5 mg protein/mL; prepared from the insect cells expressing no ABC transporter; serving as negative control) were obtained from Genomembrane (Kanazawa, Japan).
(§2) The test Danshen compounds at 100 µM final concentration were separately incubated with the membrane vesicles for 10 min. Buffer C (50 mM MOPS-tris, 70 mM KCl, 7.5 mM MgCl2, pH 7.0) was used for preincubation and incubation, while buffer D (40 mM MOPS-tris, 70 mM KCl, pH 7.0) was used for vesicle washing. The transport rate (pmol/mg protein/min) of the test Danshen compound was calculated using Equation (2): Transport=(CV×VV)/T/WV (2) where C V, V V, T, and W V represent concentration of the compound in vesicular lysates supernatant (μM), volume of the lysates (μL), incubation time (10 min), and amount of vesicle protein amount per well (0.05 mg), respectively. Differential transport of the test Danshen compound between ATP-containing vesicles and AMP-containing vesicles was defined as net transport ratio (TransportATP/TransportAMP ratio). […] All the incubation samples were analyzed by liquid chromatography/mass spectrometry.

rat Bcrp = biological target: T2, rat Bcrp (Rattus norvegicus, UniProt Q80W57); assay: Vesicular transport assay, inside-out membrane vesicles expressing rat Bcrp; conditions: positive substrate 20 μM, 10 min; rat Bcrp
T2 sequence (Q80W57 1-657): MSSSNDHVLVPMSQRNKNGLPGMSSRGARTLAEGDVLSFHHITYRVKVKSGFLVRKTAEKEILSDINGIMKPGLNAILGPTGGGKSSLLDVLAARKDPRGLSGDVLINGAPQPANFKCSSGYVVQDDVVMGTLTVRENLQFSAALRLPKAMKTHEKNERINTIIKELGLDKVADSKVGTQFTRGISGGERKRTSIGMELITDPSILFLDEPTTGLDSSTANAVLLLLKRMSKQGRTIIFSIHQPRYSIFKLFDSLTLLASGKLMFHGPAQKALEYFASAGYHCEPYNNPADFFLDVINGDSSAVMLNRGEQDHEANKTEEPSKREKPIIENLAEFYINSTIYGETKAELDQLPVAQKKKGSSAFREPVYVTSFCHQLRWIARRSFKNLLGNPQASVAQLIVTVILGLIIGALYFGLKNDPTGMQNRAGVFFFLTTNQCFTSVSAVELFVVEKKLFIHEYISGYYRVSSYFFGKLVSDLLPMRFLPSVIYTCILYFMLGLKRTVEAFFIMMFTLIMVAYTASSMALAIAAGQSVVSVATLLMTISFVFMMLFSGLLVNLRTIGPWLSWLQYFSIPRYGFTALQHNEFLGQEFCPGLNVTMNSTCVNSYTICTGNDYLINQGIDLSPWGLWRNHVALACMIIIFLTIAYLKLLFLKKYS
Method: as §1, §2

[1] = substrate: O=C(/C=C/c1ccc(O)c(O)c1)O[C@H](Cc1ccc(O)c(O)c1)C(=O)O; assay: cells, lysate or membranes named; conditions: 5 min incubation, concentrations in Table 1, 37.0 °C
[2] = substrate: O=C(O)Cc1c(/C=C/C(=O)OC(Cc2ccc(O)c(O)c2)C(=O)O)ccc(O)c1O; assay: cells, lysate or membranes named; conditions: 5 min incubation, concentrations in Table 1, 37.0 °C
[3] = substrate: O=C(O)c1ccc(O)c(O)c1; assay: cells, lysate or membranes named; conditions: 5 min incubation, concentrations in Table 1, 37.0 °C
[4] = other: rat renal basolateral uptake Oat1
[5] = other: rat renal basolateral uptake Oat3
[6] = other: human renal basolateral uptake OAT1
[7] = other: human hepatic sinusoidal uptake OAT2 (also renal basolateral)
[8] = other: rat hepatic sinusoidal uptake Oat2 (also renal apical)

TransportATP/TransportAMP ratio, positive substrate (human BCRP): 4.45 ± 0.67 (MTX)
TransportATP/TransportAMP ratio, positive substrate (rat Bcrp): 20.5 ± 3.2 (MTX)
Molecule: CN(Cc1cnc2nc(N)nc(N)c2n1)c1ccc(C(=O)N[C@@H](CCC(=O)O)C(=O)O)cc1 [MTX, methotrexate, reference compound]

B1: rat Oat1 (Rattus norvegicus) (protein)
chain: MAFNDLLKQVGGVGRFQLIQVTMVVAPLLLMASHNTLQNFTAAIPPHHCRPPANANLSKDGGLEAWLPLDKQGQPESCLRFTSPQWGPPFYNGTEANGTRVTEPCIDGWVYDNSTFPSTIVTEWNLVCSHRAFRQLAQSLYMVGVLLGAMVFGYLADRLGRRKVLILNYLQTAVSGTCAAYAPNYTVYCVFRLLSGMSLASIAINCMTLNVEWMPIHTRAYVGTLIGYVYSLGQFLLAGIAYAVPHWRHLQLVVSVPFFIAFIYSWFFIESARWYSSSGRLDLTLRALQRVARINGKQEEGAKLSIEVLRTSLQKELTLSKGQASAMELLRCPTLRHLFLCLSMLWFATSFAYYGLVMDLQGFGVSMYLIQVIFGAVDLPAKFVCFLVINSMGRRPAQMASLLLAGICILVNGIIPKSHTIIRTSLAVLGKGCLASSFNCIFLYTGELYPTVIRQTGLGMGSTMARVGSIVSPLVSMTAEFYPSMPLFIFGAVPVVASAVTALLPETLGQPLPDTVQDLKSRSRGKQNQQQQEQQKQMMPLQASTQEKNGL
Vmax [1, 4]: 0.000206 µmol/min/mg
Vmax/Km [1, 4]: 3.47 µL/min/mg
Vmax [2, 4]: 0.000115 µmol/min/mg
Vmax/Km [2, 4]: 4.72 µL/min/mg
Vmax [3, 4]: 0.000446 µmol/min/mg

B2: rat Oat3 (Rattus norvegicus) (protein)
chain: MTFSEILDRVGSMGPFQYLHVTLLALPVLGIANHNLLQIFTATTPVHHCRPPPNASIGPWVLPLDPNGKPEKCLRFVHLPNASLPNDTQRATEPCLDGWIYNSTRDTIVIEWDLVCSSNKLKEMAQSIFMAGILVGGPVIGELSDRFGRKPILTWSYLMLAASGSGAAFSPSLPVYMIFRFLCGCSISGISLSTVILNVEWVPTSMRAISSTSIGYCYTIGQFILSGLAYAIPQWRWLQLTSSAPFFIFSLLSWWVPESIRWLVLSGKYSKALKTLQRVATFNGKKEEGKKLTIEELKFNLQKDITSAKVKYGLSDLFRVSILRRVTFCLSLAWFSTGFAYYSLAMGVEEFGVNIYILQIIFGGVDIPAKFITILSLSYLGRRITQSFLLLLAGGAILALIFVPSEMQLLRTALAVFGKGCLSGSFSCLFLYTSELYPTVLRQTGMGISNVWARVGSMIAPLVKITGELQPFIPNVIFGTTALLGGSAAFFLLETLNRPLPETIEDIQNWHKQVQKTKQESEAEKASQIIPLKTGG
Vmax [1, 5]: 3.58e-06 µmol/min/mg
Vmax/Km [1, 5]: 0.15 µL/min/mg
Vmax [3, 5]: 6.68e-05 µmol/min/mg

B3: human OAT1 (Homo sapiens) (protein)
chain: MAFNDLLQQVGGVGRFQQIQVTLVVLPLLLMASHNTLQNFTAAIPTHHCRPPADANLSKNGGLEVWLPRDRQGQPESCLRFTSPQWGLPFLNGTEANGTGATEPCTDGWIYDNSTFPSTIVTEWDLVCSHRALRQLAQSLYMVGVLLGAMVFGYLADRLGRRKVLILNYLQTAVSGTCAAFAPNFPIYCAFRLLSGMALAGISLNCMTLNVEWMPIHTRACVGTLIGYVYSLGQFLLAGVAYAVPHWRHLQLLVSAPFFAFFIYSWFFIESARWHSSSGRLDLTLRALQRVARINGKREEGAKLSMEVLRASLQKELTMGKGQASAMELLRCPTLRHLFLCLSMLWFATSFAYYGLVMDLQGFGVSIYLIQVIFGAVDLPAKLVGFLVINSLGRRPAQMAALLLAGICILLNGVIPQDQSIVRTSLAVLGKGCLAASFNCIFLYTGELYPTMIRQTGMGMGSTMARVGSIVSPLVSMTAELYPSMPLFIYGAVPVAASAVTVLLPETLGQPLPDTVQDLESRWAPTQKEAGIYPRKGKQTRQQQEHQKYMVPLQASAQEKNGL
Vmax [1, 6]: 0.000181 µmol/min/mg
Vmax/Km [1, 6]: 2.55 µL/min/mg
Vmax [2, 6]: 3.76e-05 µmol/min/mg
Vmax/Km [2, 6]: 2.08 µL/min/mg
Vmax [3, 6]: 0.000242 µmol/min/mg

B4: human OAT2 (Homo sapiens) (protein)
chain: MGFEELLEQVGGFGPFQLRNVALLALPRVLLPLHFLLPIFLAAVPAHRCALPGAPANFSHQDVWLEAHLPREPDGTLSSCLRFAYPQALPNTTLGEERQSRGELEDEPATVPCSQGWEYDHSEFSSTIATEWDLVCEQKGLNRAASTFFFAGVLVGAVAFGYLSDRFGRRRLLLVAYVSTLVLGLASAASVSYVMFAITRTLTGSALAGFTIIVMPLELEWLDVEHRTVAGVLSSTFWTGGVMLLALVGYLIRDWRWLLLAVTLPCAPGILSLWWVPESARWLLTQGHVKEAHRYLLHCARLNGRPVCEDSFSQEAVSKVAAGERVVRRPSYLDLFRTPRLRHISLCCVVVWFGVNFSYYGLSLDVSGLGLNVYQTQLLFGAVELPSKLLVYLSVRYAGRRLTQAGTLLGTALAFGTRLLVSSDMKSWSTVLAVMGKAFSEAAFTTAYLFTSELYPTVLRQTGMGLTALVGRLGGSLAPLAALLDGVWLSLPKLTYGGIALLAAGTALLLPETRQAQLPETIQDVERKSAPTSLQEEEMPMKQVQN
Vmax [1, 7]: 0.000927 µmol/min/mg
Vmax/Km [1, 7]: 19.1 µL/min/mg
Vmax [2, 7]: 0.00269 ± 0.000114 µmol/min/mg
Vmax/Km [2, 7]: 24.3 µL/min/mg
Vmax [3, 7]: 0.00382 ± 0.000177 µmol/min/mg

B5: rat Oat2 (Rattus norvegicus) (protein)
chain: MGFEDLLDKVGGFGPFQLRNLVLMALPRMLLPMHFLLPVFMAAVPAHHCALPGAPANLSHQDLWLEAHLPRETDGSFSSCLRFAYPQTVPNVTLGTEVSNSGEPEGEPLTVPCSQGWEYDRSEFSSTIATEWDLVCQQRGLNKITSTCFFIGVLVGAVVYGYLSDRFGRRRLLLVAYVSSLVLGLMSAASINYIMFVVTRTLTGSALAGFTIIVLPLELEWLDVEHRTVAGVISTVFWSGGVLLLALVGYLIRSWRWLLLAATLPCVPGIISIWWVPESARWLLTQGRVEEAKKYLLSCAKLNGRPVGEGSLSQEALNNVVTMERALQRPSYLDLFRTSQLRHISLCCMMVWFGVNFSYYGLTLDVSGLGLNVYQTQLLFGAVELPSKIMVYFLVRRLGRRLTEAGMLLGAALTFGTSLLVSLETKSWITALVVVGKAFSEAAFTTAYLFTSELYPTVLRQTGLGLTALMGRLGASLAPLAALLDGVWLLLPKVAYGGIALVAACTALLLPETKKAQLPETIQDVERKSTQEEDV
Vmax [1, 8]: 0.00062 µmol/min/mg
Vmax/Km [1, 8]: 5.2 µL/min/mg
Vmax [2, 8]: 0.000164 µmol/min/mg
Vmax/Km [2, 8]: 2.73 µL/min/mg
Vmax [3, 8]: 0.00118 ± 1.9e-05 µmol/min/mg
